Data from patent publication US8927205.

What was measured:
[1] = molecular target: TNFR1-Fas receptor chimera on mouse fibroblasts from TNFR1/TNFR2 double-knockout mice (MF TNFR1-Fas cells) (UniProt P19438); assay: cell-based or functional assay
[2] = molecular target: normal human wild-type TNF receptors on Kym1 cells; assay: cell-based or functional assay

Sequence of TNFR1-Fas receptor chimera on mouse fibroblasts from TNFR1/TNFR2 double-knockout mice (MF TNFR1-Fas cells) (P19438 other isoform, or with tags, fused parts or gaps mutant limits assumed): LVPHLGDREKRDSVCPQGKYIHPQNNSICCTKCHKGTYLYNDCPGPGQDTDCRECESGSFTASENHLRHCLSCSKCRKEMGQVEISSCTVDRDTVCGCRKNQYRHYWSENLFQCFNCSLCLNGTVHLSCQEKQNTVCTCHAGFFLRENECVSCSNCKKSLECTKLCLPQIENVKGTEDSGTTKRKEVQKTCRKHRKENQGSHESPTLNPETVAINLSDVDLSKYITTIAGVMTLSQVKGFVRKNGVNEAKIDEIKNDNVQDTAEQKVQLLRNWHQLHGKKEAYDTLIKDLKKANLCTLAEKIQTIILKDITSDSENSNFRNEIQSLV

soluble human wild-type TNF (from UniProt P01375 57-233) (ligand)
ED50 (half-maximal effective concentration), cytotoxicity on MF TNFR1-Fas cells, freshly prepared dilutions [1]: 0.2 ng/mL | ED50, cytotoxicity on MF TNFR1-Fas cells, dilutions stored 8 days at 37° C. before the test [1]: 2 ng/mL | ED50, cytotoxicity on MF TNFR1-Fas cells, solutions stored 14 days at 37° C. before the test [1]: 2.8 ng/mL | ED50, cytotoxicity on Kym1 cells, solutions stored 16 days at 37° C. (FIG. 8) [2]: 1.2 ng/mL | ED50 after 8 days (FIG. 12), stored at 37° C. in 100% human serum, cytotoxicity on Kym1 cells [2]: 0.4 ng/mL | ED50 after 22 days (FIG. 9), cytotoxicity on Kym1 cells, samples stored at 37° C. [2]: 1.5 ng/mL | ED50 freshly titrated (FIG. 7), cytotoxicity on Kym1 cells [2]: 0.1 ng/mL | ED50 freshly titrated (FIG. 11), diluted in 100% human serum, cytotoxicity on Kym1 cells [2]: 0.004 ng/mL
